Reference: US20080039336A1

Target: TRPM4 of rat-derived INS-1 and RINm5F cells (endogenous) (rat) (UniProt Q9ESQ5)
Experiment: cell-based or functional assay

Chain of TRPM4 of rat-derived INS-1 and RINm5F cells (endogenous) (rat) (Q9ESQ5 whole entry): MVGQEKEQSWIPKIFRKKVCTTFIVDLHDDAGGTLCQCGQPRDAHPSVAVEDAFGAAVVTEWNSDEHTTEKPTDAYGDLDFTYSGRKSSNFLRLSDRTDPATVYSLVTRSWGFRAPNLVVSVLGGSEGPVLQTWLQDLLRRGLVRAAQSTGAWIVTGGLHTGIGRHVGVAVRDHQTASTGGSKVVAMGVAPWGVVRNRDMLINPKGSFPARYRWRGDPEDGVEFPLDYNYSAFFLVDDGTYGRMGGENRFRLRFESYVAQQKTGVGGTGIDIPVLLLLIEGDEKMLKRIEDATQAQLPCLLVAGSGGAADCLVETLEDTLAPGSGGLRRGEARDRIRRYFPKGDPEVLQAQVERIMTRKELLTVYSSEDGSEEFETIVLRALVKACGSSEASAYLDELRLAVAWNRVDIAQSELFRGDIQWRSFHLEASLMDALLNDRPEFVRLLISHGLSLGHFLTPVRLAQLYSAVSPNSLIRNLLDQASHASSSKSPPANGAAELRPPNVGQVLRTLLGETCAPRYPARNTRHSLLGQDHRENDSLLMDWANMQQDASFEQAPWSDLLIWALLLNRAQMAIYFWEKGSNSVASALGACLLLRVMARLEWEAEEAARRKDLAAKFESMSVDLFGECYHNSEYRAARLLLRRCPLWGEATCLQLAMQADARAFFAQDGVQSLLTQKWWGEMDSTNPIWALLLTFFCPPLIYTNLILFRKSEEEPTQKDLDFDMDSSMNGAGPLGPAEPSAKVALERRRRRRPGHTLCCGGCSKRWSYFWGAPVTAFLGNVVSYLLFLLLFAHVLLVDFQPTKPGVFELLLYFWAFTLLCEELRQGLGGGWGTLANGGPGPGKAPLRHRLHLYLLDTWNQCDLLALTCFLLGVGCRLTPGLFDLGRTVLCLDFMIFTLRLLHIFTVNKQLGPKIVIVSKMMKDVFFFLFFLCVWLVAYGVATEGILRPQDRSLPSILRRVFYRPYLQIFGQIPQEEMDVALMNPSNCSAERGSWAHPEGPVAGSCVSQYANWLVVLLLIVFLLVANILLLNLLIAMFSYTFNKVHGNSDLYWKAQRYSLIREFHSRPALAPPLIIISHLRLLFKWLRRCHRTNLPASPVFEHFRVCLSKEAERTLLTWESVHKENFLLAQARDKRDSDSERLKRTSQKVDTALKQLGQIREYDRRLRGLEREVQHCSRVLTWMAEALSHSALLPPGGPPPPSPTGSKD

In the case of ΔN-TRPM4 (from UniProt Q8TD43 178-1214), the insulin secretion of INS-1 cells at 25 mM glucose, fold over basal 4 mM, static incubation (mock-transfected control ~2.2-fold) is reported as 1.3 fold.
